Source: publication PMC3873232

How the values were obtained:
[1] = target: unmodified Spt5 CTD peptide (S. pombe); assay: pull-down; biotinylated peptides (50 µg) on streptavidin Dynabeads incubated with 50-200 ng TAP-purified factor in 200 µl (20 mM Hepes pH 7.6, 37.5 mM KOAc, 2.5 mM MgOAc, 5% glycerol, 0.075% Triton X-100), 4°C, 1 h; washes with 250 mM KOAc; immunoblot with a TAP antibody; percent bound by ImageJ
[2] = target: Thr1-P form of the Spt5 CTD peptide (S. pombe); assay: as above

Row | Substance | percent bound [1] [%] | percent bound [2] [%]
1 | PAF complex purified from the tpr1-TAP strain (from UniProt O42668 1-1039; Q9UUE7 1-371) | 5 | –
2 | Prf1-CBP (TAP-purified, native Prf1) (natural protein) | 10 | 35
